Laboratory results reported in patent US20230331796A1.

Molecular target: single chain C1q fusion polypeptide according to formula I (TAG-X1-C1qA-X2-C1qB-X3-C1qC-X4) (human)
Experiment: C1q affinity chromatography, immobilised fusion polypeptide, linear NaCl gradient in 20 mM HEPES pH 7.4

Chain of single chain C1q fusion polypeptide according to formula I (TAG-X1-C1qA-X2-C1qB-X3-C1qC-X4) (human) (main, as listed by the source): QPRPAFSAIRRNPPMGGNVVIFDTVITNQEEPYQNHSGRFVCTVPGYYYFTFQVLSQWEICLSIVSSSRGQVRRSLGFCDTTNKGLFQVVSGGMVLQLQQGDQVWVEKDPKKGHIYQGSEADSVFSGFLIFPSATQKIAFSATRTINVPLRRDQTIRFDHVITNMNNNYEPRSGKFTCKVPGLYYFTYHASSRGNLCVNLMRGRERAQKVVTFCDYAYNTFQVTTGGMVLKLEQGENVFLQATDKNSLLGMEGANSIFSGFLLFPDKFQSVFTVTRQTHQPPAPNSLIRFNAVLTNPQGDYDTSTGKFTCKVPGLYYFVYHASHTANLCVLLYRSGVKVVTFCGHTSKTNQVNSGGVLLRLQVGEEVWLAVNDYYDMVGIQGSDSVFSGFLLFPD

Row | Substance | retention time [min]
1 | Ustekinumab (antibody) | 39.1
2 | Briakinumab (antibody) | 30.7
